From PMC9352680, “A comprehensive thermodynamic model for RNA binding by the Saccharomyces cerevisiae Pumilio protein PUF4”

T1: PUF4 RNA-binding domain (Saccharomyces cerevisiae, UniProt P25339 537-888)
T1 sequence: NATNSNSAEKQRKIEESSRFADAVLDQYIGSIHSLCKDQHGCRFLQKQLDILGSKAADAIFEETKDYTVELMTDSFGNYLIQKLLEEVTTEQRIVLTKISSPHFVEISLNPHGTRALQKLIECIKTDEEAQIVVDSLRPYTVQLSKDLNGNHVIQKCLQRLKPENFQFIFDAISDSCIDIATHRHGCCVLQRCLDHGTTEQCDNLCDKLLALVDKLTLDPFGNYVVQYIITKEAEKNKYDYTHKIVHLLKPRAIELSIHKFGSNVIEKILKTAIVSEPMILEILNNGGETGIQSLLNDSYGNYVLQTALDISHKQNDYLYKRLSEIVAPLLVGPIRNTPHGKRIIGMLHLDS

B1: Id_ii_S2_P5E.4_K5.3_C5.2_H5.3_A5.1_F5.1_T5.2_[T11A]_[A12C] (ssRNA)
RNA: UUUGAUUAAUAUGAUAUCGUUCUUUCUCUACACUUAUUAACUUCUUUCUCGAUAUCAUAUUAAUCUUU
B2: Id_ii_S2_P5E.4_K5.3_C5.2_H5.3_A5.1_F5.1_T5.2_[T11A]_[A12T] (ssRNA)
RNA: UUUGAUUAAUAUGAUAUCGUUCUUUCUCUACACUUAUUAAUUUCUUUCUCGAUAUCAUAUUAAUCUUU
B3: Id_ii_S2_P5E.4_K5.3_C5.2_H5.3_A5.1_F5.1_T5.2_[A12C] (ssRNA)
RNA: UUUGAUUAAUAUGAUAUCGUUCUUUCUCUACACUUAUUAUCUUCUUUCUCGAUAUCAUAUUAAUCUUU
B4: Id_ii_S2_P5E.4_K5.3_C5.2_H5.3_A5.1_F5.1_T5.2_[A12T] (ssRNA)
RNA: UUUGAUUAAUAUGAUAUCGUUCUUUCUCUACACUUAUUAUUUUCUUUCUCGAUAUCAUAUUAAUCUUU
B5: Id_ii_S2_P5E.4_K5.3_C5.2_H5.3_A5.1_F5.1_T5.2 (ssRNA)
RNA: UUUGAUUAAUAUGAUAUCGUUCUUUCUCUACACUUAUUAUAUUCUUUCUCGAUAUCAUAUUAAUCUUU

Target: T1, PUF4 RNA-binding domain
Assay: Mg; RNA-MaP; 20 mM Na-HEPES pH 7.4, 30 mM KOAc, 0.75 mM MgCl2, 0.1% Tween-20, 5% glycerol, 0.1 mg/mL BSA, 2 mM DTT; 25 C; 0.0125-409.6 nM protein
Details: tags: N-His6-TEV cleaved; C-SNAP kept, Cy3B-labelled; label: tethered on chip by stalled RNA polymerase

| Binder | Kd |
| --- | --- |
| ACAAACGCUAUAUAUAUCACAAAC (ssRNA) [Id_ii_S3_P3E.3_K3.2_C3.2_[C-2G]_[T-1C]_H3.2_A3.1_F3.1_T3.2_[A10C]] | 836 nM |
| UCUCUUUGUAUUGUCAUCUCUU (ssRNA) [Ib_S1_P5E.1_K5.1_C5.1_H5.1_A5.1_[A7G]_F5.1_[T9C]_T5.1] | 140 nM |
| ACAAACACUAUAUAUAAGACAAAC (ssRNA) [Id_ii_S3_P3E.3_K3.2_C3.2_[C-2A]_[T-1C]_H3.2_A3.1_F3.1_T3.2_[T9A]_[A10G]] | 450 nM |
| ACAAACUUUAUAUAUAUAACAAAC (ssRNA) [Id_ii_S3_P3E.3_K3.2_C3.2_[C-2T]_H3.2_A3.1_F3.1_T3.2] | 595 nM |
| UCUCUUUGUAUUUUGAUCUCUU (ssRNA) [Ib_S1_P5E.1_K5.1_C5.1_H5.1_A5.1_[A7T]_F5.1_[T9G]_T5.1] | 17.1 nM |
| ACAAACACUAUAUAUACGACAAAC (ssRNA) [Id_ii_S3_P3E.3_K3.2_C3.2_[C-2A]_[T-1C]_H3.2_A3.1_F3.1_T3.2_[T9C]_[A10G]] | 1040 nM |
| ACAAACAAUAUAUAUAUUACAAAC (ssRNA) [Id_ii_S3_P3E.3_K3.2_C3.2_[C-2A]_[T-1A]_H3.2_A3.1_F3.1_T3.2_[A10T]] | 94 nM |
| ACAAACAGUAUAUAUAACACAAAC (ssRNA) [Id_ii_S3_P3E.3_K3.2_C3.2_[C-2A]_[T-1G]_H3.2_A3.1_F3.1_T3.2_[T9A]_[A10C]] | 522 nM |
| ACAAACACUAUAUAUACAACAAAC (ssRNA) [Id_ii_S3_P3E.3_K3.2_C3.2_[C-2A]_[T-1C]_H3.2_A3.1_F3.1_T3.2_[T9C]] | 735 nM |
| ACAAACGAUAUAUAUAAGACAAAC (ssRNA) [Id_ii_S3_P3E.3_K3.2_C3.2_[C-2G]_[T-1A]_H3.2_A3.1_F3.1_T3.2_[T9A]_[A10G]] | 786 nM |
| ACAAACAUUAUAUAUAGUACAAAC (ssRNA) [Id_ii_S3_P3E.3_K3.2_C3.2_[C-2A]_H3.2_A3.1_F3.1_T3.2_[T9G]_[A10T]] | 67.5 nM |
| ACAAACACUAUAUAUACCACAAAC (ssRNA) [Id_ii_S3_P3E.3_K3.2_C3.2_[C-2A]_[T-1C]_H3.2_A3.1_F3.1_T3.2_[T9C]_[A10C]] | 816 nM |
| ACAAACAUUAUAUAUAAAACAAAC (ssRNA) [Id_ii_S3_P3E.3_K3.2_C3.2_[C-2A]_H3.2_A3.1_F3.1_T3.2_[T9A]] | 868 nM |
| ACAAACAUUAUAUAUAACACAAAC (ssRNA) [Id_ii_S3_P3E.3_K3.2_C3.2_[C-2A]_H3.2_A3.1_F3.1_T3.2_[T9A]_[A10C]] | 708 nM |
| ACAAACUCUAUAUAUAAAACAAAC (ssRNA) [Id_ii_S3_P3E.3_K3.2_C3.2_[C-2T]_[T-1C]_H3.2_A3.1_F3.1_T3.2_[T9A]] | 932 nM |
| ACAAACUUUAUAUAUACAACAAAC (ssRNA) [Id_ii_S3_P3E.3_K3.2_C3.2_[C-2T]_H3.2_A3.1_F3.1_T3.2_[T9C]] | 925 nM |
| ACAAACUCUAUAUAUAACACAAAC (ssRNA) [Id_ii_S3_P3E.3_K3.2_C3.2_[C-2T]_[T-1C]_H3.2_A3.1_F3.1_T3.2_[T9A]_[A10C]] | 599 nM |
| ACAAACAAUAUAUAUACGACAAAC (ssRNA) [Id_ii_S3_P3E.3_K3.2_C3.2_[C-2A]_[T-1A]_H3.2_A3.1_F3.1_T3.2_[T9C]_[A10G]] | 1290 nM |
| ACAAACGCUAUAUAUACUACAAAC (ssRNA) [Id_ii_S3_P3E.3_K3.2_C3.2_[C-2G]_[T-1C]_H3.2_A3.1_F3.1_T3.2_[T9C]_[A10T]] | 34.2 nM |
| ACAAACACUAUAUAUAUAACAAAC (ssRNA) [Id_ii_S3_P3E.3_K3.2_C3.2_[C-2A]_[T-1C]_H3.2_A3.1_F3.1_T3.2] | 873 nM |
| ACAAACGUUAUAUAUAAUACAAAC (ssRNA) [Id_ii_S3_P3E.3_K3.2_C3.2_[C-2G]_H3.2_A3.1_F3.1_T3.2_[T9A]_[A10T]] | 660 nM |
| ACAAACAAUAUAUAUAAUACAAAC (ssRNA) [Id_ii_S3_P3E.3_K3.2_C3.2_[C-2A]_[T-1A]_H3.2_A3.1_F3.1_T3.2_[T9A]_[A10T]] | 98.1 nM |
| B1 | > 2300 nM |
| B2 | > 2300 nM |
| B3 | > 2300 nM |
| B4 | 2240 nM |
| B5 | 548 nM |
| ACAAACGGUAUAUAUAGAACAAAC (ssRNA) [Id_ii_S3_P3E.3_K3.2_C3.2_[C-2G]_[T-1G]_H3.2_A3.1_F3.1_T3.2_[T9G]] | 128 nM |
| UCUCUUUGUAUUCUCAUCUCUU (ssRNA) [Ib_S1_P5E.1_K5.1_C5.1_H5.1_A5.1_[A7C]_F5.1_[T9C]_T5.1] | 29.8 nM |
| ACAAACAAUAUAUAUAAGACAAAC (ssRNA) [Id_ii_S3_P3E.3_K3.2_C3.2_[C-2A]_[T-1A]_H3.2_A3.1_F3.1_T3.2_[T9A]_[A10G]] | 1090 nM |
